Laboratory results from publication PMC2649420 (The Journal of biological chemistry, 2008).

Target: Sbi-III-IV (amino acids 150-266), domains III and IV of Sbi (S. aureus strain Mu50, UniProt Q99RL2 150-266)
Experiment: SPR

B1: C3a anaphylatoxin (domain or fragment)
chain: not shown
Which Kd does the source give for B1 here?
Its Kd is 19.8 µM.
